From publication PMC11091522

T1: rmCD3δε-Fc (CD3 delta/CD3 epsilon heterodimer) (mouse, UniProt P04235;P22646 22-105;22-108)
T1 sequence 1: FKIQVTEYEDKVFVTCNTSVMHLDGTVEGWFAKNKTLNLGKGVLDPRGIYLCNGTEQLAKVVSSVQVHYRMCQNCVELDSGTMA
T1 sequence 2: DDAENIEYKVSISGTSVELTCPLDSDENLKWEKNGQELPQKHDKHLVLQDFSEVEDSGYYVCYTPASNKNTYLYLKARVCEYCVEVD

B1: CD3 Apt1 monomer (XNA)
RNA: GGGAGAGAAGGAUAGGGCCCCGAUUGAUUCGCAAUGUGCGUCCCCUCGUGCCUUCCUUAUACCUCCUUUCCC
modifications: 2'-fluoro pyrimidines
B2: CD3 Apt5 monomer (XNA)
RNA: GGGAGAGAAGGAUAGGGCCUUGCCUGCUUUCACGUGUGAUCCCUGCCCGUUUCCUUAUACCUCCUUUCCC
modifications: 2'-fluoro pyrimidines
B3: CD3 Apt12 monomer (XNA)
RNA: GGGAGAGAAGGAUAGGGUCCCCUGUCGAUAUCCACCGUCUGGCCCGCAUUGAUUCCUUAUACCUCCUUUCCC
modifications: 2'-fluoro pyrimidines
B4: CD3 Apt3 monomer (XNA)
RNA: GGGAGAGAAGGAUAGGGUCCCUACCUGAAACUCGAAGAUGAGCCCUGUCUGAUUCCUUAUACCUCCUUUCCC
modifications: 2'-fluoro pyrimidines

target: T1, rmCD3δε-Fc (CD3 delta/CD3 epsilon …); experiment: filter binding

Binding result, binds:
B1, B2, B3, B4
